The nanobody polyreactivity screen of Harvey et al. (2022)

Test: yeast display, Sf9 membrane polyspecificity reagent, FACS + sequencing; frameworks hold sequencing errors
Procedure, shortened: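 A nanobody's polyreactivity label depends on the gate it was sorted from. Yeast display cells were stained with 10% biotinylated, detergent-solubilized Sf9 membrane reagent for 1 hour at 4 °C, enriched on streptavidin microbeads and sorted by FACS. The low and high (top ~1%) gates were set on anti-HA fluorescence for expression and streptavidin fluorescence for reagent binding.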

Sequence	polyreactivity (PSR sort gate)
QVQLVESGGGLVQAGGSLRLSCAASGFTFPYYAMGWYRQAPGKERELVAAISWDGGITYYADSVKGRFTISRDNAKNTVYLQMNSLKPEDTAVYYCNVEGWYDYDYWGQGTQVTVSS	high polyreactivity
QVQLVESGGGLVQAGGSLRLSCAASGFTFPYYAMGWYRQAPGKERELVADITSGGGTNYADSVKGRFTISRDNAKNTVFLQMNSLKPEDTAVYYCAADAYHQGMDYWGQGTQVTVSS	low polyreactivity
QVQLVESGGGLVQAGGSLRLSCAASGFTFQDYAMGWYRQAPGKERELVAAISTSDGNTYYADSVKGRFTISRDNAKNTVYLQMNSLKPEDTAVYYCAAQRNYGWVKFYYWGQGTQVTVSS	high polyreactivity
QVQLVESGGGLVQAGGSLRLSCAASGFTFQWYAMGWYRQAPGKERELVAGITSGASTNYADSVKGRFTISRDNAKNNVYLQMNSLKPEDTAVYYCAAGYKSRYYRNSGYYWGQGTQVTVSS	high polyreactivity
QVQLVESGGGLVQAGGSLRLSCAASGFTFQWYAMGWYRQAPGKERELVAGITSGASTNYADSVKGRFTISRDNAKNTVYLQMNSLKPEDTAVYYCAARRWREGARYSYWGQGTQVTVSS	high polyreactivity
QVQLVESGGGLVQAGGSLRLSCAASGFTFQYYAMGCYRPAPGKERELVATISSTDNTYYADSVKGRFTISRDNAKNTVYLQMFSLKPEDTAVYYCNAAYVYGYQARGGYWGQGTQVTVSS	high polyreactivity
QVQLVESGGGLVQAGGSLRLSCAASGFTFQYYAMGWYRQAPGKERELVAAITWSGTSTYYADSVKGRFTISRDNAKNTVYLQMNSLKPEDTAVYYCNKYSPYITYDYDYWGQGTQVTVSS	high polyreactivity
QVQLVESGGGLVQAGGSLRLSCAASGFTFRAYAMGWYRQAPGKERELVATITRSGGSTFYADSVKGRFTISRDNAKNTVYLQMNSLKPEDTAVYYCAAVYRFAFRYAWYKYDYWGQGTQVTVSS	high polyreactivity
QVQLVESGGGLVQAGGSLRLSCAASGFTFRDNAMGRYRQAPGKERELVAAITWDGGSTYYADSVKGRFTISRDNEKNTVYLQMNSLKPEDTAVYYCAASRYYPRYFKRYYYWGQGTQVTVSS	high polyreactivity
QVQLVESGGGLVQAGGSLRLSCAASGFTFRDYAMGWYRQAPGKERELVAAISRSGDSTYYADSVKGRFTISRDNAKNTVYLQMNSLKPEDTAVYDYAAKRRYTTYDYWGQGTQVTVSS	high polyreactivity
QVQLVESGGGLVQAGGSLRLSCAASGFTFRGNAMGWYRQAPGKERELVAAITSSDDSTYYADSVKGRFTISRDNAKNTVYLQMNSLKPEDTAVYYCAAVANGYWTYEYWGQGTQVTVSS	low polyreactivity
QVQLVESGGGLVQAGGSLRLSCAASGFTFRGYAMGWYRPAPGKERELVAAITVRGGRTYYADSVKGRFTISRDNAKNTVYLQMNSLKPEETALYYCAKPVDRYTYSLYQQYDYWGQGTQVTVSS	high polyreactivity
QVQLVESGGGLVQAGGSLRLSCAASGFTFRGYAMGWYRQAPGKERELVAAITAGGGSTSYADSVKGRFTISRDNAKNTVYLQMNSLKPEDTGVYYCARRPGTRTYLSKWGSKYDYWGQGTQVTVSS	high polyreactivity
QVQLVESGGGLVQAGGSLRLSCAASGFTFRGYVMGWYRQAPGKERELVAAITNIGTSTYYADSVKGRFTISRDNAKNTVYLQMNSLNPEDTAVYYCAARLRSIFYDWGLGTQVTVSS	low polyreactivity
QVQLVESGGGLVQAGGSLRLSCAASGFTFRHYAMGWYRQAPGKARQLVAAITKSGDSTYYADSVKWRFTISRDIAKKTVYLQMNSLNPEDTEVYYCATPYTLSRADNYWGQGTQVTVSS	low polyreactivity
QVQLVESGGGLVQAGGSLRLSCAASGFTFRIYAMGWYRQAPGKERELVAAISWSGGSTYYADSVKGRFTISRDNAKNTVYLQMNSLKPEDTAVYYCATDSHRSQRHYAYDGDYWGQGTQVTVSS	high polyreactivity
QVQLVESGGGLVQAGGSLRLSCAASGFTFRKYAMGWYRPAPGKERELVAAITANGGRTYYADSVKGRFTISRDNAKNTVYLQMNSLKPEDTAVYYCARDWGKSEYDYWGQGTQVTVSS	high polyreactivity
QVQLVESGGGLVQAGGSLRLSCAASGFTFRKYAMGWYRQAPGKERELVAVINIVGSTYYADSVKGRFTISRDNAKNTVYLQMNSRKPEDTAVYYCAADWSYLLKYYWYGGFNYWGQGTQVTVSS	high polyreactivity
QVQLVESGGGLVQAGGSLRLSCAASGFTFRLYAMGWYRQAPGIERELVAAISSGGRTYYADSVKGRFTISRDNAKNTVYFQMNSLKPEDTAVNYCAVYPRDAERYGYWGQGSQVTVSS	high polyreactivity
QVQLVESGGGLVQAGGSLRLSCAASGFTFRLYAMGWYRQAPGKERELVAAISSRGTTTYYADSVKGRFTNSRDNAKKTGYLQMNSLKPEDTAVYNCNKEYTSYGYDLEYDYWGQGTQVTVSS	low polyreactivity
QVQLVESGGGLVQAGGSLRLSCAASGFTFRNNAMGWYRQAPGKERELVAAISKRGSSTYYADSVKGRFTISRDNAKNTVYLQMNSLKPEDTAVYYCAASWLGASGIRYDYWGQGTQVTVSS	high polyreactivity
QVQLVESGGGLVQAGGSLRLSCAASGFTFRQYAMGGYGQAPGKEREWVASIRNGGSTNYADSVKGRFTISRDNAKNTDYFQMITLKPEDTALYYCSQRHSRTNMYYWGQGTQVTVSS	high polyreactivity

Sequence	polyreactivity (PSR sort gate)
QVQLVESGGGLVQAGGSLRLSCAASGFTFRQYAMGWYRQAPGKERELVAAISRSGSRTYYADSVKGRFTISRDNAKNTVYLQMNSLKPEDTAVYYCNAVFSTFTGEYYWGQGSQVTVSS	high polyreactivity
QVQLVESGGGLVQAGGSLRLSCAASGFTFRRNGRGWYRPAPGKERELVAAIRGSDGSTYYADSVKGRFTISRDTAKNTVYLLMNSLKPADTAVYYCIVVGKGLYRKMGYWGQGTQVTVSS	high polyreactivity
QVQLVESGGGLVQAGGSLRLSCAASGFTFRRYAKGWYRQATGKEREFVAAISIRGGRTNYADSVKGRFTISRDNAKNTVYLQMNSLKPEDTAVYYCAADGVYALDVESDYWGQGTQVTVSS	high polyreactivity
QVQLVESGGGLVQAGGSLRLSCAASGFTFRRYAMGWYRQAPGKERELVAAISRRGVTTYYADSVKGRFTISRDNAKNTVYLQMISLKPEDTAVYYCAADHNPSIGDDSWGQGTQVTVSS	high polyreactivity
QVQLVESGGGLVQAGGSLRLSCAASGFTFRRYAMGWYRQAPGKERELVAAISYSGGSTNYADSVKGRFTISRDNAKNTVYLQMNSLKPEDTAVYYCATTSRAWGRGYDYWGQGTQVTVSS	low polyreactivity
QVQLVESGGGLVQAGGSLRLSCAASGFTFRRYAMGWYRQAPGKETELVAVITTAGSTNYADSVKGRFTISRDNAKNTVHLQMNSLIPEDTAVYYCATDNGTRKRRYDYWGQGTQVTVSS	low polyreactivity
QVQLVESGGGLVQAGGSLRLSCAASGFTFRRYDMGWYRQAPGKERELVAAITASGGNTYYADSVKGRFTISRDNAKNTVYLQMNSLKPEDTAVYYCAARQYRYKYDYWGQGTQVTVSS	high polyreactivity
QVQLVESGGGLVQAGGSLRLSCAASGFTFRSNAMGWYRQAPGKERELVAAISYSGDSTYYADSVKGRFTISRDNAKNTVYLQMNSLKPEDTAVYYCNAVGSGYRSWYDYWGQGTQVTVSS	high polyreactivity
QVQLVESGGGLVQAGGSLRLSCAASGFTFRSNAMGWYRQAPGKERELVAAITRGGGSTYYADSVKGRFTISRDNEKNTVYLQMNSLKPEDTAVYYCAAGGFRTSRRDYWGQGTQVTVSS	high polyreactivity
QVQLVESGGGLVQAGGSLRLSCAASGFTFRSYAMGWYRQAPGKEREFVAAINGRSGSTYADSVKGRFTISRDNAKNTVYLQMTSLKPEDTAVYYCAARVRRGSTQAQYYYWGQGTQVTVSS	high polyreactivity
QVQLVESGGGLVQAGGSLRLSCAASGFTFRSYTMGWYRQAPGKERELVARITRSCGNTYYADSVKGRFTISRDNAKNTVYVQMNSLKPEDTEGYYCASVYWGKYSAGNLLEYDYWGQGTQVTVSS	high polyreactivity
QVQLVESGGGLVQAGGSLRLSCAASGFTFRSYVMGWYRQAPGKERELVASISSGGITKYADSVKGRFTISRDNAKNTVYLQMNSLKPEDTAVYYCNARTYSNTVLNYGLQYGYDYWGQGTQVTVSS	high polyreactivity
QVQLVESGGGLVQAGGSLRLSCAASGFTFRTYAKGWYRQAPAKERELVADISGSGGSTYYADSVKGRFTISRDNAKNTVYLQMNSLKPEDTAVYYCAADYASWSNWGYEYWGQGTQVTVSS	high polyreactivity
QVQLVESGGGLVQAGGSLRLSCAASGFTFRTYAMGRYRQAPGTERELVAAINVSGGTYYADSVKGRFTISRDNAKNTVYLQMNSLKPEDSAVYYCTANRFRTGFDYWGQGTQVTVSS	low polyreactivity
QVQLVESGGGLVQAGGSLRLSCAASGFTFRTYAMGWYRQAPGKERELVAAITGSGGSTYYADSVKGRFTISRDNAKNTVYLQMNSLKPEDTAVYYCNAVERSAFRGVRFDYDYWGQGTQVTVSS	high polyreactivity
QVQLVESGGGLVQAGGSLRLSCAASGFTFRTYAMGWYRQAPGKEREYVAAINGRSGSTYADSVKGRFTISRDNAKNTVYLQMISLKPEDTAVYYCAARVRRGSTQAQFYYWGQGTQVTVSS	high polyreactivity
QVQLVESGGGLVQAGGSLRLSCAASGFTFRVYAMGWYRPAPGKERELVAAISVRGDSTYYADSVKGRFTISRDNAKNTVYLQMNSLKPEDTAVYYCNAALLGKQYYSNPNYDYWGQGTQVTVSS	high polyreactivity
QVQLVESGGGLVQAGGSLRLSCAASGFTFRVYAMGWYRQAPGKERELVAAITNSGGNTYYADSVKGRFTISRDNAKNTVYLQMNSLKPEDTAVYYCNRRYRYRFGYWGQGTQVTVSS	high polyreactivity
QVQLVESGGGLVQAGGSLRLSCAASGFTFRVYAMGWYRQAPGKERELVAAITRGGSTKYADSVKGRFTISRDNAKNTVYLQMNSLKPEDTAVYYCAARYNGKLNWGQGTQVSVSS	high polyreactivity
QVQLVESGGGLVQAGGSLRLSCAASGFTFRWYAMGWYRQAPGKERELVAAITSSGGSTYYADSVKGRFTISRDNAKNTVYLQMNSLKPEDTAVYYCNKRFLDLSYHDYDYWGQGTQVTVSS	high polyreactivity
QVQLVESGGGLVQAGGSLRLSCAASGFTFRWYAMGWYRQAPGKERELVARIRGSGGNTYYADSVKGRFTISRDNAKNTVYLQMNSLKPEDTAVYYCAAMQSPTRSFIYRFDYWGQGTQVTVSS	high polyreactivity
